Sequences and labels used below:
T1: human IL-1α (human, UniProt P01583 113-271)
T1 construct: also called IL-1alpha; hIL-1α
T1 sequence (looked up): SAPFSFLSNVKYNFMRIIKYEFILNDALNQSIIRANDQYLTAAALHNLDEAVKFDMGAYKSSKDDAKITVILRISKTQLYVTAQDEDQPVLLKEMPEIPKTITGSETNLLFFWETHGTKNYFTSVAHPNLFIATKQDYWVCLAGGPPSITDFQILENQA

T2: human IL-1α (human, UniProt P01583 113-271)
T2 sequence (looked up): T1 sequence (looked up)

B1: ABT1-95-4 (other)
VL: DIQMTQSPSSLSASVGDRVTITCRASQPIVRNLRWYQQKPGKAPKLLIYSSSYLQSGVPSRFSGSGSGTDFTLTISSLQPEDFATYHCQQGYRWPVTFGQGTKVEIKR
notes: VK dAb
B2: ABT1-95-12 (other)
VL: B1 VL with V30H, R31G, Q55E, G57W
notes: VK dAb
B3: ABT1-95-10 (other)
VL: B1 VL with V30Q, R31G, Q55E, S56R, Q79H, F83L
notes: VK dAb
B4: ABT1-95-3 (other)
VL: B1 VL with V30H, R31G
notes: VK dAb
B5: ABT1-95-9 (other)
VL: B1 VL with V30Q, R31G, Q55E, S56R, Q79H
notes: VK dAb
B6: ABT1-95-15 (other)
VL: B1 VL with Q55E, S56P
notes: VK dAb
B7: ABT2-108-538x/ABT1-122-511 hu IgG1/K wt (bispecific antibody, V domains shown)
VH: EVQLLESGGGLVQPGGSLRLSCAASGFTFADEGMMWVRQAPGKGLEWVSRITYSGKNTYYADSVKGRFTISRDNSKNTLYLQMNSLRAEDTAVYYCAKYTGRILGHHLFDYWGQGTLVTVSS
VL: DIQMTQSPSSLSASVGDRVTITCRASQPIWTELNWYQQKPGKAPKLLIYGSSSLQRGVPSRFSGSGSGTDFTLTISSLQPEDFATYYCKQFAYFPATFGQGTKVEIKR
B8: ABT2-108-538x/ABT1-95-A3 hu IgG1mut 234, 235/K (bispecific antibody, V domains shown)
VH: B7 VH
VL: B1 VL with Q27K, I29G, L33M, S51V, Q55E, S56P, Q89L, V96P
B9: ABT2-108-538x/ABT1-122-750x hu IgG1/K wt (bispecific antibody, V domains shown)
VH: B7 VH
VL: B7 VL with T20A, R24S, P28H, L33I, N34S, S52A, L54R, R56K, A96N
B10: ABT2-108-521/ABT1-122 hu IgG1/K wt (bispecific antibody, V domains shown)
VH: B7 VH with D31E, E32Y, G33T, T52G, Y53Q, S54D
VL: DIQMTQSPSSLSASVGDRVTITCRASQPIWTELNWYQQKPGKAPKLLIYGSSSLQSGVPRFSGSGSGTDFTLTISSLQPEDFATYYCQQFAYFPATFGQGTKVEIKR
B11: ABT2-65-17/ABT1-141-25 hu IgG1/K wt (bispecific antibody, V domains shown)
VH: EVQLLESGGGLVQPGGSLRLSCVASGFTFEDYQMGWVRQAPGKGLEWVSSISAMGNRTYYADSVKGRFTISRDDSKNTLYLQMNSLRAEDTAVYYCAQNLVRLGRSRWMFDYWGQGTLVTVSS
VL: B1 VL with P28W, V30Q, R31K, N32Q, R34A, H87Y, G91H, Y92L, W94V, V96M
B12: ABT2-65-166/ABT1-95-A5 hu IgG1mut 234, 235/K (bispecific antibody, V domains shown)
VH: B11 VH with V23A, N56G, D74N
VL: B1 VL with Q27R, P28T, I29P, S51R, Y53F, Q55E, S56P, Q89L, V96P
B13: ABT2-108/ABT1-95-3 hu IgG1/K wt (bispecific antibody, V domains shown)
VH: EVQLLESGGGLVQPGGSLRLSCAASGFTFAEYTMMWVRQAPGKGLEWVSRIGQDGKNTYYADSVKGRFTISRDNSKNTLYLQMNSLRAEDTAVYYCAKYTGRVGVHHLFDYWGQGTLVTSS
VL: B1 VL with V30H, R31G
B14: ABT2-108/ABT1-141 hu IgG1/K wt (bispecific antibody, V domains shown)
VH: B13 VH
VL: DIQMTQSPSSLSASVGDRVTITCRASQWIQKQLAWYQQKPGKAPKLLIYSSSYLQSGVPRFSGSGSGTDFTLTISSLQPEDFATYYCQQHLRVPFTFGQGTKVEIKR
B15: ABT2-108-606/ABT1-122 Fab on yeast surface (Fab, V domains shown)
VH: EVQLLESGGGLVQPGGSLRLSCAASGFTFAEYTMMWVRQAPGKGLEWVSRIGQDGKNTYYRSSVKGRFTISRDNSKNTLYLQMNSLRAEDTAVYYCAKYTGRVGVHHLFDYWGQGTLVTVSS
VL: B7 VL with R56S, K89Q
B16: ABT2-108-615/ABT1-122 Fab on yeast surface (Fab, V domains shown)
VH: B15 VH with Y59V, Y60I, S62D
VL: B7 VL with R56S, K89Q
B17: ABT2-108-601/ABT1-122 Fab on yeast surface (Fab, V domains shown)
VH: B15 VH with Y32E, T33S, M34W, R61A, S62D
VL: B7 VL with R56S, K89Q
B18: ABT2-108-605/ABT1-122 Fab on yeast surface (Fab, V domains shown)
VH: B15 VH with S62E, S63D
VL: B7 VL with R56S, K89Q
B19: ABT2-108-602/ABT1-122 Fab on yeast surface (Fab, V domains shown)
VH: B15 VH with Y32E, T33K, M34Y, R61A, S62D
VL: B7 VL with R56S, K89Q
B20: ABT2-108-608/ABT1-122 Fab on yeast surface (Fab, V domains shown)
VH: B15 VH with Y60T, S62D
VL: B7 VL with R56S, K89Q
B21: ABT2-108-616/ABT1-122 Fab on yeast surface (Fab, V domains shown)
VH: B15 VH with R61A, S62D, V103I, G104Y, V105N
VL: B7 VL with R56S, K89Q
B22: ABT2-108-612/ABT1-122 Fab on yeast surface (Fab, V domains shown)
VH: B15 VH with R61A, S62D, V103I, G104M, V105G
VL: B7 VL with R56S, K89Q
B23: ABT2-108-614/ABT1-122 Fab on yeast surface (Fab, V domains shown)
VH: B15 VH with R61A, S62D, V103I, G104L, V105R
VL: B7 VL with R56S, K89Q
B24: ABT2-108-617/ABT1-122 Fab on yeast surface (Fab, V domains shown)
VH: B15 VH with R61A, S62D, V103I, G104F, V105T
VL: B7 VL with R56S, K89Q
B25: ABT2-108-603/ABT1-122 Fab on yeast surface (Fab, V domains shown)
VH: B15 VH with G52T, Q53D, D54A, R61A, S62D
VL: B7 VL with R56S, K89Q
B26: ABT2-108-604/ABT1-122 Fab on yeast surface (Fab, V domains shown)
VH: B15 VH with I51V, G52T, Q53Y, R61A, S62D
VL: B7 VL with R56S, K89Q
B27: IgG pairing ABT1-122-750X with ABT2-65-17 (bispecific antibody, V domains shown)
VH: B11 VH
VL: B7 VL with T20A, R24S, P28H, L33I, N34S, S52A, L54R, R56K, A96N
B28: ABT2-65-17/ABT1-95-15 huIgG1/K wt (bispecific antibody, V domains shown)
VH: B11 VH
VL: B1 VL with Q55E, S56P

Changes are numbered by the printed parent chain. Where “and” joins values, the source holds several entries; their conditions need not be identical. Equal entries are not always repeated.

In the first experiment the target is T1, human IL-1α. As to the kind of experiment: Table 62 IC50; RBA presumed.
With B1, inhibition was half-maximal at 0.7 nM (IC50).
Molecule B2 yielded an IC50 of 0.8 nM.
The molecule B3 had an IC50 of 0.8 nM.
The molecule B4 showed an IC50 of 4 nM.
B5: the IC50 came to 0.8 nM.

In a further experiment the target is T1, human IL-1α. As to the kind of experiment: Table 62 KD; BIAcore presumed.
Take B1: binding was characterised by a dissociation constant (Kd) of 1.5 nM.
B2: the affinity, expressed as Kd, was 0.9 nM.
In the case of B3, the Kd came to 0.9 nM.
In turn, B6 yielded a Kd of 0.4 nM.
B4 yielded a Kd of 7 nM.
As for B5, the Kd is 1 nM.

The next experiment concerns the target T3, human IL-1β (human, UniProt P01584 117-269). The experiment can be described thus: cell-based or functional assay.
With B7, the “IL-1β IC50” value was 0.006 nM and 0.009 nM and 0.01 nM.
In the case of B8, the “IL-1β IC50” value stood at 0.035 nM.
For the molecule B9, the “IL-1β IC50” value is 0.005 nM and 0.008 nM and 0.01 nM.
B10: the “IL-1β IC50” value was 0.2 nM and 0.4 nM.
For B11, the “IL-1β IC50” value was determined as 1 nM.
B12: the “IL-1β IC50” value is 0.145 nM.
For the molecule B13, the “IL-1β IC50” value turned out to be 200 nM.

For another experiment, the target named is T2, human IL-1α. As to the kind of experiment: cell-based or functional assay.
Turning to B8, the “IL-1α IC50” value stood at 0.095 nM.
With B10, the “IL-1α IC50” value is 1000 nM.
Consider B11, for which the “IL-1α IC50” value turned out to be 400 nM.
As for B12, the “IL-1α IC50” value is 0.015 nM.
With B14, the “IL-1α IC50” value was 1000 nM and 1500 nM and 3000 nM.
On to B13, for which the “IL-1α IC50” value was 1500 nM.

For a further experiment, the target named is T1, human IL-1α. As to the kind of experiment: cell-based or functional assay.
With B1, the ND50 amounted to 2 nM.
B4 showed an ND50 of 80 nM.

In another experiment the target is T3, human IL-1β. The experiment can be described thus: yeast surface Fab display, flow cytometry titration. Background: Flow cytometry measures light scatter and fluorescence of single cells or particles in a stream.
Take B15: the EC50 came to 0.343 nM.
B16: the EC50 was determined as 0.214 nM and the “fold improvement in affinity over ABT2-108” value (from here on “fold improvement in affinity”) was found to be 25 fold.
Molecule B17 showed an EC50 of 0.522 nM.
Same read-out and setting: under B18 stands 0.21 nM; under B19, 0.474 nM.
In turn, B20 returned an EC50 of 0.366 nM.
The same measure, in the same setting: under B21 stands 0.324 nM; under B22, 0.267 nM.
Regarding B23, the EC50 is 1.01 nM.
B24: the response was half-maximal at 0.224 nM (EC50) and the “fold improvement in affinity” value was found to be 25 fold.
B25 had an EC50 of 1.35 nM.
In the case of B26, the EC50 amounted to 1.35 nM and the “fold improvement in affinity” value stood at 5 fold.

The next experiment has as its target T3, human IL-1β. As to the kind of experiment: cell-based or functional assay. The source holds these as a separate data set.
Take B7: the “MRC5 IL-1β” value was determined as 0.009 nM.
Consider B27, for which the “MRC5 IL-1β” value stood at 1 nM.
Take B8: the “MRC5 IL-1β” value was 0.023 nM.
Same read-out and setting: under B9 stands 0.0094 nM; under B10, 1 nM.
Turning to B11, the “MRC5 IL-1β” value is 0.975 nM.
On to B28, for which the “MRC5 IL-1β” value came out at 0.094 nM.
As to B12, the “MRC5 IL-1β” value stood at 0.197 nM.
With B14, the “MRC5 IL-1β” value was determined as 22 nM.

A further experiment deals with T2, human IL-1α. The experiment can be described thus: cell-based or functional assay. This is another data set of the same source.
With B7, the “MRC5 IL-1α” value turned out to be 259 nM.
For the molecule B27, the “MRC5 IL-1α” value turned out to be 20 nM.
In the case of B8, the “MRC5 IL-1α” value was determined as 0.032 nM.
Consider B9, for which the “MRC5 IL-1α” value is 75 nM.
On to B10, for which the “MRC5 IL-1α” value worked out at 1000 nM.
The same measure, in the same setting: the result for B11 reads 400 nM.
On the same count and under the same terms, under B28 stands 2.7 nM; under B12, 0.014 nM.
On the same count and under the same terms, under B14 stands 1500 nM; under B13, 300 nM.

By IC50 is commonly meant the midpoint of a concentration-inhibition curve. A lower IC50 goes with inhibition by little substance. For orientation: Kd means the concentration at which binding is half-saturated. Lower therefore signals a tighter complex. Broadly, the EC50 is the midpoint of the concentration-response curve. Read a low EC50 as greater potency.
